Experimental data taken from publication PMC9305627.

Experiments:
Assay in all cases: ELISA
UbV.ANKRD13D.4 L70A = UbV.ANKRD13D.4 L70A (UniProt P0CG47)
UbV.ANKRD13D.4 W72A = UbV.ANKRD13D.4 W72A (UniProt P0CG47)
UbV.ANKRD13D.4 Q49A = UbV.ANKRD13D.4 Q49A (UniProt P0CG47)
UbV.ANKRD13D.4 T12A = UbV.ANKRD13D.4 T12A (UniProt P0CG47)
UbV.ANKRD13D.4 S65A = UbV.ANKRD13D.4 S65A (UniProt P0CG47)

- fold effect on affinity against UbV.ANKRD13D.4 (UbV.ANKRD13D.4 L70A): < 3 fold
- fold effect on affinity against UbV.ANKRD13D.4 (UbV.ANKRD13D.4 W72A): < 3 fold
- fold effect on affinity against UbV.ANKRD13D.4 (UbV.ANKRD13D.4 Q49A): < 3 fold
- fold effect on affinity against UbV.ANKRD13D.4 (UbV.ANKRD13D.4 T12A): < 3 fold
- fold effect on affinity against UbV.ANKRD13D.4 (UbV.ANKRD13D.4 S65A): < 3 fold
B1: UIM.ANKRD13D.4 peptide (peptide)
peptide: RGQQEEEDLQRILQLSLTEH
